Experiment [1] concerns the target KIR receptors on NK cells (all inhibitory KIR2DL receptors). The experiment can be described thus: cell-based or functional assay.
Experiment [2] deals with recombinant KIR 2DL1 protein (entire extracellular domain, produced in E. coli, refolded) (human) (UniProt P43626). The experiment can be described thus: SPR (Biacore), KIR 2DL1 immobilized on CM5 chip, soluble antibody as analyte.
Experiment [3] concerns the target recombinant KIR 2DL3 protein (entire extracellular domain, produced in E. coli, refolded) (human) (UniProt P43628). Briefly: SPR (Biacore), KIR 2DL3 immobilized on CM5 chip, soluble antibody as analyte. A general note: In SPR one partner is held on a chip, and binding of the other changes the refractive index at the surface.

The term Kd denotes the constant that tells how readily two partners part at equilibrium.

For the substance “human anti-KIR monoclonal antibody 1-7F9”, in experiment [1], the increased expression of CD107a on NK cells is 0.5 to 13.6%.

With “monoclonal antibody DF200 produced by hybridoma DF200”, the Kd in experiment [2] is 10.9 nM; in experiment [3], 2 nM.

The values above are taken from patent US20140023646A1.
